This passage reports binding result and EC50 results from EP4455161A1 (ONO Pharmaceutical Co., Ltd., dated 2024).

Assay [1] has as its target T1, CRMP2 peptide TVTPASSAKTSPAKQQAPPVRC-NH2 (C-terminal amide).
T1 peptide: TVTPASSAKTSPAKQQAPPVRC
Nature of the assay: ELISA.

Assay [2] deals with T2, pCRMP2 peptide H-TVTPASSAKT(pS)PAKQQAPPVRC-NH2 (phosphoserine at S522 (CRMP2 numbering); C-terminal amide).
T2 construct: also called pCRMP2 peptide containing a single S522 phospho-site
T2 peptide: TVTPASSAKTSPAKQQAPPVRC
Nature of the assay: ELISA.

Assay [3] deals with T3, CRMP2 peptide H-EVSVTPKTVTPASSAKTSPAKQQC-NH2 (C-terminal amide).
T3 peptide: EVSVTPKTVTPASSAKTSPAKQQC
The experiment in a line: ELISA.

Assay [4] concerns the target T4, pCRMP2 peptide H-EVSV(pT)PKTV(pT)PASSAKT(pS)PAKQQC-NH2 (phosphothreonine at T509 and T514, phosphoserine at S522 (CRMP2 numbering); C-terminal amide).
T4 construct: also called pCRMP2 peptide containing three phospho-sites T509, T514 and S522
T4 peptide: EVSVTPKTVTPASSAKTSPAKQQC
The experiment in a line: ELISA.

Assay [5] has as its target T5, Peptide 4152960: ….
T5 construct: also called non-phosphorylated CRMP2 peptide
The experiment in a line: direct ELISA on coated peptide (Fig. 5).

For assay [6], the target named is T6, Peptide 4152963: …(p)S522PAKQQA (phosphoserine at S522 (CRMP2 numbering)).
T6 construct: also called CRMP2 peptide with phosphorylation at S522
Nature of the assay: direct ELISA on coated peptide (Fig. 5).

Assay [7] deals with T7, Peptide 4152961: VCEVSV(p)T509… (phosphothreonine at T509 (CRMP2 numbering)).
T7 construct: also called CRMP2 peptide with phosphorylation at T509
The experiment in a line: direct ELISA on coated peptide (Fig. 5).

In assay [8] the target is T8, recombinant human full length CRMP1 (human, UniProt Q14194 1-572).
T8 construct: mature
T8 sequence (Q14194 whole entry): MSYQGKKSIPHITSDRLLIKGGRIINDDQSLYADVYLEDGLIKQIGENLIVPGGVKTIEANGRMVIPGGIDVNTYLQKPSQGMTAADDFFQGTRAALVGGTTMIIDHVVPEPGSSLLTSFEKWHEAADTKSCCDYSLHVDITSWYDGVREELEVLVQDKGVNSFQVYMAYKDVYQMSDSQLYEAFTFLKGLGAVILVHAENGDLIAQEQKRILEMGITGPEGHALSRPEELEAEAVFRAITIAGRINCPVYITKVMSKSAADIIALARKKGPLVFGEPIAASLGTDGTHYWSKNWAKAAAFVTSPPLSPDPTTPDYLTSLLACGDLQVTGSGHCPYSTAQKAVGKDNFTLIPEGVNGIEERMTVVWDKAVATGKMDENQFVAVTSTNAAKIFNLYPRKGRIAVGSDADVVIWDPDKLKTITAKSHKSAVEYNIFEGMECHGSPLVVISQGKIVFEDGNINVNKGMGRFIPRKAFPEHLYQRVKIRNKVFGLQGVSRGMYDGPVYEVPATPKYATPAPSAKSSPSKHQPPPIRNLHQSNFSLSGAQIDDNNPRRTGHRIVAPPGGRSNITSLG
Nature of the assay: direct ELISA, recombinant human CRMP1-5 coated at 5 µg/mL.

In assay [9] the target is T9, CRMP2 peptide 128 (TPKTVTPASSAKTSP) (human).
T9 construct: 15-mer spotted on a cellulose membrane array
T9 peptide: TPKTVTPASSAKTSP
Nature of the assay: overlapping peptide array.

For assay [10], the target named is T10, CRMP2 peptide 129 (VTPASSAKTSPAKQQ) (human).
T10 construct: 15-mer spotted on a cellulose membrane array
T10 peptide: VTPASSAKTSPAKQQ
The experiment in a line: overlapping peptide array.

B1: NI-504.3E7 (antibody, human IgG1, V domains shown)
VH: EVQLVETGGGFVQPGGSLQLSCAVSGFPYSGTSFHWVRQVSGKGLEWIGRIRSKSDNYETSYTESLKGRFIVSRDDSKNMVRLHLYSLRTEDTALYYCTTGIIVVDTSYLDHWGRGTLVTVSS
VL: SYELTQPPSASVSPGQTARITCSGAALPKKYAYWYQLKSGQAPVLVIYEDTKRPSGIPERFSGSSSGTLATLTINGALVEDEADYYCYSTDSSGDVWVFGGGTKLTVL
notes: VH_3E7 + VL_3E7
For the molecule B1, the binding result in assay [1], in assay [2], in assay [3], in [4], in [5] and in assay [6] was “binds” in each case. Further, the binding result in assay [7], in assay [9] and in [10] was “binds” in each case. For the same molecule, in assay [8], the EC50 is 69 nM.
